From PMC12609799, “Novel Dual-Coenzyme Specificity and Thermostability of Malate Dehydrogenase Identified in the Cyanobacterium Microcystis aeruginosa PCC7806” (International Journal of Molecular Sciences, 2025)

Key:
purified protein [1] = substrate: NC(=O)C1=CN([C@@H]2O[C@H](COP(=O)(O)OP(=O)(O)OC[C@H]3O[C@@H](n4cnc5c(N)ncnc54)[C@H](O)[C@@H]3O)[C@@H](O)[C@H]2O)C=CC1; assay: purified protein; assay type: biochemical, Microcystis aeruginosa; conditions: oxaloacetate reduction, 100 mM Tris-HCl pH 8.0, 25 °C, apparent, varied: cofactor
purified protein [2] = substrate: NC(=O)C1=CN([C@@H]2O[C@H](COP(=O)(O)OP(=O)(O)OC[C@H]3O[C@@H](n4cnc5c(N)ncnc54)[C@H](OP(=O)(O)O)[C@@H]3O)[C@@H](O)[C@H]2O)C=CC1; assay: purified protein; assay type: biochemical, Microcystis aeruginosa; conditions: oxaloacetate reduction, 100 mM Tris-HCl pH 8.0, 25 °C, apparent, varied: cofactor

B1: MaMDH (Ma7806MDH) (Microcystis aeruginosa PCC 7806SL) (protein)
chain: MVDFYDTLIPCQSPRVSVIGAGNVGRTLAQRIAEKNLADVVLLDIVHGLPQGIALDLMEAQGIELHDSEIIGTNNYEDTAGSDIVVITAGLARKPGMSRDDLMNVNAKIVVEAATKCLKYSPEAIFIVITNPLDVMTYLVWQATGLPPQRVMGMAGVLDSSRLQTFIAMELGVSTADVHAMVLGGHGDLMLPLPRYCTVSGVPITELMDEITINRLVERTRNGGAEIVKLLQTGGAYYAPASSACTMVETILRNQSRLLPAAAYLKGEYGLQDVYLGVPCRLGCRGVESILEVRLTDAERLDLHTSAASVRQNVHLALDSLKVLM
- Km (purified protein [1]): 33.140 ± 0.95 µM
- kcat (purified protein [1]): 31.7 ± 1.43 s⁻¹
- kcat/Km (purified protein [1]): 956000 M⁻¹ s⁻¹
- Km (purified protein [2]): 113.200 ± 3.46 µM
- kcat (purified protein [2]): 8.71 ± 1.45 s⁻¹
- kcat/Km (purified protein [2]): 77000 M⁻¹ s⁻¹
